The values that follow come from EP4624486A1 (Guangdong Raynovent Biotech Co., Ltd., dated 2025).

What all share (test): cell-based or functional assay
For experiment [1], the target named is GLP-1 receptor (GLP-1R) (UniProt P43220).
The target in experiment [2] is GCG receptor (GCGR) (UniProt P47871).
In experiment [3] the target is GIP receptor (GIPR) (UniProt P48546).
The target in experiment [4] is T1, GIP receptor (GIPR) (UniProt P48546 22-466, limits assumed).
T1 sequence (looked up): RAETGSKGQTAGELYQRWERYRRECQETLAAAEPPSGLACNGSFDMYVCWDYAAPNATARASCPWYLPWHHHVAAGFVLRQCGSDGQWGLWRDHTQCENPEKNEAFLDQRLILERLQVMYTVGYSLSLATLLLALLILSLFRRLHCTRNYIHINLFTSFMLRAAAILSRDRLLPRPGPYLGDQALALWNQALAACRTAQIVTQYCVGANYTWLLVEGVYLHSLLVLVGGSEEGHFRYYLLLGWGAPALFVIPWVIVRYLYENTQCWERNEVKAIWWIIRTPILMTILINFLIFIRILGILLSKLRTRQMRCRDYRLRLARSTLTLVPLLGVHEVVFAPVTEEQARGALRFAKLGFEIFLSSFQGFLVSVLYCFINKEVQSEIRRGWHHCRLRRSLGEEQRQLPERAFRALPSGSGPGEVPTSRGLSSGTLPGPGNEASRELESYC

The target in experiment [5] is GLP-1 receptor (GLP-1R) (UniProt P43220 24-463, limits assumed).
Experiment [6] addresses GCG receptor (GCGR) (UniProt P47871 26-477, limits assumed).

Bridge positions count the residues as written; N and C are the ends. Square brackets hold non-standard residues; d marks the D form. Ends that are not written are not given here. αMeF = C[C@](N)(Cc1ccccc1)C(=O)O; αMeL = CC(C)C[C@](C)(N)C(=O)O; Aib = CC(C)(N)C(=O)O

Sequence of GCG receptor (GCGR) (UniProt P47871 26-477, limits assumed) (P47871 26-477 limits assumed): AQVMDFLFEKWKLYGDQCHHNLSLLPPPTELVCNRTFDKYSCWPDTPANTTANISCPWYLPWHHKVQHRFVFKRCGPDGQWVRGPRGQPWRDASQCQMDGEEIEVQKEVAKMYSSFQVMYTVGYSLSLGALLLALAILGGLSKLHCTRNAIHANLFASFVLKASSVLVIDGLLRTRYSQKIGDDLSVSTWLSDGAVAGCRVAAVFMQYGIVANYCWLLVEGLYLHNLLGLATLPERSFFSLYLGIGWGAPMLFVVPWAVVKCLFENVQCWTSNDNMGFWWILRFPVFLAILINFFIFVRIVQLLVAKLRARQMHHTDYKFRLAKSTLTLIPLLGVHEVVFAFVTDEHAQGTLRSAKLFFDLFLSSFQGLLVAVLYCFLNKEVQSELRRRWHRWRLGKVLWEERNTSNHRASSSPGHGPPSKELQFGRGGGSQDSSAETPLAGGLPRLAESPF
Sequence of GLP-1 receptor (GLP-1R) (UniProt P43220) (P43220 24-463 limits assumed): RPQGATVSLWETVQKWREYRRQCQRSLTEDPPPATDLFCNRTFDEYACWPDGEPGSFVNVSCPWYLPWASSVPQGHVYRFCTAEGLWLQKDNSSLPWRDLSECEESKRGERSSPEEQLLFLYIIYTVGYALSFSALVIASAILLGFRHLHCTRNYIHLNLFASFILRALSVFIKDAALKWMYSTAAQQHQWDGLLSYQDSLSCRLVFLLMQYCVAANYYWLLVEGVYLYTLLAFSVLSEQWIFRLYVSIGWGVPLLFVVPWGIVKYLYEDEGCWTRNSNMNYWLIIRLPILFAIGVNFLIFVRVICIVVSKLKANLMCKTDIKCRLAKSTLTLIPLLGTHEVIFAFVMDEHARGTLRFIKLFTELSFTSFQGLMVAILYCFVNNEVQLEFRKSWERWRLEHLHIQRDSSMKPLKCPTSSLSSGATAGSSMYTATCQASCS
Sequence of GCG receptor (GCGR) (UniProt P47871) (P47871 26-477 limits assumed): as the sequence (P47871 26-477 limits assumed) above

“Human GLP-1 (7-37) (from UniProt P01275 21-180) (ligand)”: the GLP-1 EC50 (nM); cAMP, agonistic activity in experiment [1] is 0.001 nM.

For the molecule LY3437943 (peptide), in experiment [2], the GCG EC50 (nM); cAMP, agonistic activity was 0.031 nM. The molecule also registered a GIP-1 EC50 (nM); cAMP, agonistic activity in experiment [3] of 0.001 nM. In experiment [1], this molecule came in with a GLP-1 EC50 (nM); cAMP, agonistic activity of 0.014 nM.

B1: Example 54 (peptide)
peptide: Y[Aib]QGTFTSDYSI[αMeL]KDKKAQ[Aib]AFIEYLLKGGPSSGAPPPS-NH2
modifications: bridge 14-17; not fully specified (bridges); also: stapled body (lipidated) structure only in drawing chem0263
As to B1, in experiment [4], the “GIP-1 EC50 (nM); cAMP, agonistic activity” value (from here on “GIP-1 EC50 (nM); cAMP”) amounted to 0.0004 nM. Besides, in experiment [5], the “GLP-1 EC50 (nM); cAMP, agonistic activity” value (shortened to “GLP-1 EC50 (nM); cAMP”) stood at 0.002 nM. The “GCG EC50 (nM); cAMP, agonistic activity” value in experiment [6] amounted to 0.02 nM.

Turning to Y[Aib]QGTFTSDYSI[αMeL]LDKKAQ[Aib]KFIEYLLEGGPSSGAPPPS-NH2 (linker 17-21 via (2-2-oxoethyl)‑glycine, AEEA, AEEA, γGlu, C20 diacid) [Example 1], in experiment [4], the “GIP-1 EC50 (nM); cAMP” value is 0.001 nM. Also, in experiment [5], the “GLP-1 EC50 (nM); cAMP” value is 0.009 nM. In addition, in experiment [6], the “GCG EC50 (nM); cAMP, agonistic activity” value stood at 0.024 nM.

B2: Example 45 (peptide)
peptide: Y[Aib]QGTFTSDYSI[αMeL]KDKKAQ[Aib]AFIEYLLEGGPSSGAPPPS-NH2
modifications: bridge 14-17; not fully specified (bridges); also: stapled body (lipidated) structure only in drawing chem0251
Regarding B2, in experiment [4], the “GIP-1 EC50 (nM); cAMP” value turned out to be 0.0001 nM. Also, in experiment [5], the “GLP-1 EC50 (nM); cAMP” value is 0.005 nM. Further, the “GCG EC50 (nM); cAMP, agonistic activity” value in experiment [6] amounted to 0.029 nM.

B3: Example 41 (peptide)
peptide: Y[Aib]QGTFTSDYSI[αMeL]KDKKAQ[Aib]AFIEYLLKGGPSSGAPPPS-NH2
modifications: linker 14-17 via Ida, Lys, Lys, γGlu, C20 diacid; also: further groups not given here
On to B3, for which the “GIP-1 EC50 (nM); cAMP” value in experiment [4] is 0.0003 nM. In experiment [5], the “GLP-1 EC50 (nM); cAMP” value was found to be 0.003 nM. Further, the “GCG EC50 (nM); cAMP, agonistic activity” value in experiment [6] amounted to 0.015 nM.

B4: Example 42 (peptide)
peptide: Y[Aib]QGTFTSDYSI[αMeL]KDKKAQ[Aib]AFIQYLLEGGPSSGAPPPS-NH2
modifications: bridge 14-17; not fully specified (bridges); also: stapled body (lipidated) structure only in drawing chem0245
With B4, the “GIP-1 EC50 (nM); cAMP” value in experiment [4] was 0.0005 nM. Moreover, the “GLP-1 EC50 (nM); cAMP” value in experiment [5] is 0.007 nM. Besides, the “GCG EC50 (nM); cAMP, agonistic activity” value in experiment [6] amounted to 0.025 nM.

For Y[Aib]QGTFTSDYSI[αMeL]KDKKAQ[Aib]AFIEYLLEGGPSSGAPPPS-NH2 (linker 14-17 via (2-2-oxoethyl)‑glycine, AEEA, Lys, γGlu, C20 diacid) [Example 52], the “GIP-1 EC50 (nM); cAMP” value in experiment [4] is 0.0001 nM. Further, the “GLP-1 EC50 (nM); cAMP” value in experiment [5] came to 0.003 nM. Besides, the “GCG EC50 (nM); cAMP, agonistic activity” value in experiment [6] was 0.025 nM.

B5: Example 51 (peptide)
peptide: Y[Aib]QGT[αMeF]TSDYSI[αMeL]KDKKAQ[Aib]AFIEYLLKGGPSSGAPPPS-NH2
modifications: bridge 14-17; not fully specified (bridges); also: stapled body (lipidated) structure only in drawing chem0260
In the case of B5, the “GIP-1 EC50 (nM); cAMP” value in experiment [4] was determined as 0.0002 nM. Besides, the “GLP-1 EC50 (nM); cAMP” value in experiment [5] amounted to 0.001 nM. In experiment [6], the “GCG EC50 (nM); cAMP, agonistic activity” value is 0.025 nM.

With Y[Aib]QGTFTSDYSI[αMeL]KDKKAQ[Aib]AFIEYLLKGGPSSGAPPPS-NH2 (linker 14-17 via (2-2-oxoethyl)‑glycine, AEEA, γGlu, C20 diacid) [Example 38], the “GIP-1 EC50 (nM); cAMP” value in experiment [4] was determined as 0.0002 nM. The “GLP-1 EC50 (nM); cAMP” value in experiment [5] came to 0.002 nM. Moreover, in experiment [6], the “GCG EC50 (nM); cAMP, agonistic activity” value was found to be 0.018 nM.
